Reference: US20220202763A1 (FLORIDA INTERNATIONAL UNIVERSITY BOARD OF TRUSTEES, published 2022)

Molecular target: the molecule itself
Assay: crystal structure (chains A and B in the asymmetric unit) and size exclusion chromatography

B1: PpArsN1 (ArsN1 arsinothricin N-acetyltransferase from Pseudomonas putida KT2440), one subunit (enzyme)
chain: MHSGIDIRVARPEDAEEIQIIYAPIVLNTAISFEEAVPSVEQMRERISTTLQTYPYLVAVREGRVVGYAYASQHRARAAYRWAVDVTVYVAEGQRRSGIARQLYDVLLPVLKRLGYRSAYAGIALPNEGSVGLHERLGFQHIGTFPQVGFKLDAWHDVGYWRFDFGDEGLHPEAPLGFLSQIPVPR
notes: Written as a single subunit; also called phoN1 gene product; not shown: C-terminal six histidine tag from vector pBAD-Myc/His-A; the vector-derived residues between protein and tag are not sta
binding result: binds
